Measured values: patent US20060063234A1 (CRUCELL HOLLAND B V, published 2006)

Target: T1, EpCAM (epithelial cell adhesion molecule), human tumor antigen, on LS174T colon carcinoma cells (human, UniProt P16422 24-314)
T1 sequence (looked up): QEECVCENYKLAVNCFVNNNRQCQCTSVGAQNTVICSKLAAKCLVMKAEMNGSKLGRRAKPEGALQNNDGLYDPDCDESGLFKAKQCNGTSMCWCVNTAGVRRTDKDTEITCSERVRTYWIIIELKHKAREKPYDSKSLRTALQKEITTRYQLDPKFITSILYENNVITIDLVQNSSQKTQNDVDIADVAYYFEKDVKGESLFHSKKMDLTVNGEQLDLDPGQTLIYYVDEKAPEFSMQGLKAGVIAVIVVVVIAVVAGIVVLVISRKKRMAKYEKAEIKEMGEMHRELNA
Experiment: cell-based or functional assay

B1: anti-EpCAM IgM (PER.C6 produced recombinant human IgM, encoded by pEpcamIgM) (antibody)
light: QVQLVQSGAEVKKPGSSVRVSCKASGGTFSSYAISWVRQAPGQGLEWMGGIIPIFGTANYAQKFQGRVTITADESTSTAYMELSSLRSEDTAVYYCARDPFLHYWGQGTLVTVSTGSASAPTLFPLVSCENSPSDTSSVAVGCLAQDFLPDSITFSWKYKNNSDISSTRGFPSVLRGGKYAATSQVLLPSKDVMQGTDEHVVCKVQHPNGNKEKNVPLPVIAELPPKVSVFVPPRDGFFGNPRKSKLICQATGFSPRQIQVSWLREGKQVGSGVTTDQVQAEAKESGPTTYKVTSTLTIKESDWLSQSMFTCRVDHRGLTFQQNASSMCVPDQDTAIRVFAIPPSFASIFLTKSTKLTCLVTDLTTYDSVTISWTRQNGEAVKTHTNISESHPNATFSAVGEASICEDDWNSGERFTCTVTHTDLPSPLKQTISRPKGVALHRPDVYLLPPAREQLNLRESATITCLVTGFSPADVFVQWMQRGQPLSPEKYVTSAPMPEPQAPGRYFAHSILTVSEEEWNTGETYTCVVAHEALPNRVTERTVDKSTGKPTLYNVSLVMSDTAGTCY
heavy: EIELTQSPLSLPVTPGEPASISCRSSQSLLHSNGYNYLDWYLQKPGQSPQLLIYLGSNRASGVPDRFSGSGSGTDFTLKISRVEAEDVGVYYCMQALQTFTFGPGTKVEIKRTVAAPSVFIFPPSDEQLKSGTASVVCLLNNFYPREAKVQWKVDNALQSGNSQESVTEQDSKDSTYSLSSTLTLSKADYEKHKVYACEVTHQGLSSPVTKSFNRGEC
- complement dependent cytotoxicity on LS174T cells: potency relative to anti-EpCAM IgG: ~10 fold
